According to US20050171004A1, “Use of cardiotrophin-1 to promote wound healing and counteract overt fibrosis” (priority 2003, published 2005):

Key:
[1] = system: porcine coronary artery vascular smooth muscle cells; assay: Chemotaxis of vascular smooth muscle cells (data not shown); format: cell-based
cardiac fibroblasts [2] = assay: Nuclear accumulation of PCNA; format: cell-based, rat; conditions: CT-1 for 24 hours
Description: Cardiac fibroblasts were seeded onto cover slips and allowed to attach overnight. The cells were incubated with serum free media for 24 hours prior to stimulation with CT-1 for an additional 24 hours. The cells were then fixed with cold acetone, permeabilized and immunostained for PCNA and counter stained with Hoechst 33342. Images from 5 high power fields per slide were captured and cells were counted. Nuclei that were positive for PCNA were counted and expressed as a ratio to total nuclei.

rat cardiac fibroblasts = assay: Boyden chamber migration assay; format: cell-based
Description: Migration of rat cardiac fibroblasts was measured using Boyden chamber (Neuro Probe Inc. Gaithersburg, Md.) assay (Richards and McCullough, 1984, Immunol Commun 13: 49-62). Chemoattractants were diluted in DMEM/F12 and loaded into the lower wells at specified concentrations. The polycarbonate membrane (5 μm pore) was placed over the wells, and 55 μL cell suspension in DMEM/F12 supplemented with 100 μM ascorbate was loaded into each well (1000 cells/mm^2). The chamber was incubated overnight in 5% CO2 and 100% humidity at 37° C. Cells that had migrated through the membrane and become adherent to the lower surface were fixed with methanol and stained with Diff-Quick stain (Dade Behring AG, Düdingen, Switzerland). Cell migration was determined by counting the number of cells per high power field.

cardiac myofibroblasts = assay: Estimation of membrane potential with DiBAC4(3) dye; format: cell-based, rat; conditions: superfusion with CT-1 for 4 minutes
Description: Myofibroblast membrane potential was estimated using voltage sensitive DiBAC4(3) dye (Molecular Probes, Eugene, Oreg.). […] First passage myofibroblasts were plated on glass coverslips, allowed to attach, then incubated with 1 μM DiBAC4(3) in control solution containing: NaCl (140 mM), KCl (5 mM), HEPES (10 mM), CaCl2 (2.0 mM), MgCl2 (1.4 mM) and glucose (10 mM) for 20 minutes. The cells were visualized at 400× on an inverted microscope (Nikon Canada). DiBAC4 (3) was excited at 470 nm wavelength and emitted light at 525 nm was digitized and stored (Photon Technology International, Lawrenceville, N.J.). Fluorescence intensity was normalized to maximum fluorescence observed throughout the experiment. To ensure fluorescence intensity changes in response to altered membrane potential were occurring as expected, the cells were superfused with Tyrode's solution containing 1 μM DiBAC4(3) and 1.5 mM KCl or 15 mM KCl. Under these control conditions, DiBAC4(3) fluorescence decreased or increased indicating hyperpolarization or depolarization, respectively. For CT-1 experiments, CT-1 was diluted in control solution containing 1 μM DiBAC4(3). After ensuring a stable fluorescence signal, the cells were superfused with the CT-1 containing solution for 4 minutes, followed by washout. Fluorescence was monitored for a total of 10 minutes.

cardiac fibroblasts [3] = assay: Western analysis of myosin light chain phosphorylation; format: cell-based, rat; conditions: CT-1 10 ng/mL
Description: Protein concentrations of tissue and cell lysates were determined by the BCA method (Smith et al., 1985, Anal Biochem 150: 76-85). Proteins were separated by 8-12% SDS-PAGE and transferred to PVDF membrane (Roche, Indianapolis, Ind.) for 1 hour at 300 mA for small proteins or for 2 hours at 500 mA for proteins greater than 100 kDa. Membranes were blocked with 5% non-fat skim milk in tris-buffered saline containing 0.2% Tween 20 (TBST). Proteins were visualized with ECL Plus (Amersham) after probing with primary and secondary antibodies. Band intensity was quantified using a CCD camera imaging densitometer (GS670, Bio-Rad Laboratories (Canada) Ltd. Mississauga, Ontario).
The infarct zone is repopulated by interstitial fibroblasts that infiltrate the scar after MI. […] Similar results were obtained when using the Costar Transwell® system (data not shown). To determine how the chemotactic response is transduced, we used specific inhibitors of intracellular signaling pathways. […] This effect could be blunted by co-incubation with AG490 (FIG. 22). […] Since activation of myosin motors is required for effective cell migration, and CT-1 induced migration could be inhibited by co-incubation with a myosin light chain kinase inhibitor, we sought to determine the effect of CT-1 on the phosphorylation status of myosin light chain. Myosin light chain regulates the ATPase activity of myosin heavy chain, and thus overall contractile activity. […] Myosin light chain phosphorylation could be prevented by co-incubation with ML-7 or W7 but not AG490 or PP2 (FIG. 25b).

cardiac fibroblasts [4] = assay: Immunofluorescence of STAT3 nuclear accumulation; format: cell-based, rat; conditions: CT-1 for 5 minutes
Description: Cardiac fibroblasts were seeded onto coverslips in 6 well dishes and allowed to attach overnight in media containing 10% serum. The cells were rendered quiescent in serum free media for 24 hours before being stimulated with CT-1 for specified times. The media was removed, cells were rinsed with PBS and fixed with 4% paraformaldehyde. Cells were permeabilized with 0.1% Triton X-100 and incubated with primary antibodies, biotinylated secondary antibodies, and streptavidin FITC. Nuclei were stained with Hoechst 33342. The cells were visualized with epifluorescent microscopy with appropriate filters (Nikon Canada).

B1: cardiotrophin-1 (protein, UniProt Q16619 1-201, looked up)
Cardiotrophin-1: MSRREGSLEDPQTDSSVSLLPHLEAKIRQTHSLAHLLTKYAEQLLQEYVQLQGDPFGLPSFSPPRLPVAGLSAPAPSHAGLPVHERLRLDAAALAALPPLLDAVCRRQAELNPRAPRLLRRLEDAARQARALGAAVEALLAALGAANRGPRAEPPAATASAASATGVFPAKVLGLRVCGLYREWLSRTEGDLGQLLPGGSA
notes: gp130 signaling cytokine of the LIF or IL-6 superfamily; 201 amino acids as a mature protein, 21.5 kDa
[1]
  chemotactic effect: does appear to have a chemotatic effect
Cardiac fibroblasts [2]
  nuclear expression of PCNA: increased nuclear expression of PCNA
Rat cardiac fibroblasts; CT-1 gradient, overnight
  cardiac fibroblast migration: induced cardiac fibroblast migration in a dose dependent manner
Rat cardiac fibroblasts; ion channel and myosin light chain kinase function
  dependence of CT-1 induced migration: dependent on functioning potassium channels and myosin light chain kinase
Rat cardiac fibroblasts; specific inhibitors of signaling pathways, integrin inhibitors
  dependence of CT-1 chemotaxis: dependent on intracellular signaling pathways
Cardiac myofibroblasts
  cell membrane potential (DiBAC4(3) fluorescence): pronounced hyperpolarization
Cardiac fibroblasts [3]
  phosphorylation of myosin light chain at threonine 18/serine 19: induced phosphorylation
Cardiac fibroblasts [4]
  nuclear accumulation of STAT3: nuclear accumulation of STAT3
